Groups on a side chain read outwards from the residue. No end group written: not given here. CO‑CH2 = CO-CH2 linker joining mPEG to the Lys side chain
T1: PTH receptor (PTHR1) on SaOS-2 osteosarcoma cells (UniProt Q03431 27-593, limits assumed)
T1 sequence (looked up): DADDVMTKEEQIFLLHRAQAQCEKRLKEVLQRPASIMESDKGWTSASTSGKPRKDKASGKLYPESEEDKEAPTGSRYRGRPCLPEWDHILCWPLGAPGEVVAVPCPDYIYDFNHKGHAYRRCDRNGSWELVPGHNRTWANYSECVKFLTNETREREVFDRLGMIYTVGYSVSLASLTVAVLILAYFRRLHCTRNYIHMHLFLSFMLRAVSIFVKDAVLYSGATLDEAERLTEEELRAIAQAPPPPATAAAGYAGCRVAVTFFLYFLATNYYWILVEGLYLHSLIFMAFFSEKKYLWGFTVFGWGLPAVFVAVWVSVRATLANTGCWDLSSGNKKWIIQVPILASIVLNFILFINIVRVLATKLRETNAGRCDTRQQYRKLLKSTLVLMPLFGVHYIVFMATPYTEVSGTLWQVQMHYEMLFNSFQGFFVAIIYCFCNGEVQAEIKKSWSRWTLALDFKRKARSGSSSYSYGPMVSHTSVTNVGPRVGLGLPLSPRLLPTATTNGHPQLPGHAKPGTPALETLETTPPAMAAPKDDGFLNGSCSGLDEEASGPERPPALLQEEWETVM


Columns and labels:
[1] = target: PTHR-emGFP expressed in transfected HEK 293 cells; assay: cell-based or functional assay
[2] = target: T1, PTH receptor (PTHR1) on SaOS-2 …; assay: cell-based or functional assay

PTHR1 internalization at 20 min, 100 nM compound, percent of vehicle only control (baseline=100%) [1] | PTHR1 internalization at 40 min, 100 nM compound, percent of vehicle only control (baseline=100%) [1] | PTHR1 internalization at 60 min, 100 nM compound, percent of vehicle only control (baseline=100%) [1] | PTHR1 internalization at 180 min, 100 nM compound, percent of vehicle only control (baseline=100%) [1] | Average EC50 (nM) (n = 2), cAMP induction in SaOS-2 cells (HTRF) [2] | Binder
106 % of vehicle only control | 126 % of vehicle only control | 113 % of vehicle only control | 142 % of vehicle only control |  | SVSEIQLMHNLGRHLASMERVEWLRKLLQDVHNF (not fully specified (C-terminus)) [SEQ ID NO: 1 but unpegylated and Lysine at amino acid 26]
127 % of vehicle only control | 93 % of vehicle only control | 91 % of vehicle only control | 92 % of vehicle only control |  | SVSEIQLMHNLGRHLASMERVEWLRK([CO‑CH2-mPEG 5 kD])LLQDVHNF-NH2 (also: trifluoroacetate salt) [SEQ ID NO: 1 with 5 kD mPEG]
160 % of vehicle only control | 120 % of vehicle only control | 104 % of vehicle only control | 102 % of vehicle only control | 7.7 nM | SVSEIQLMHNLGRHLASMERVEWLRK([CO‑CH2-mPEG 2 kD])LLQDVHNF-NH2 (also: trifluoroacetate salt) [SEQ ID NO: 1 with 2 kD mPEG]

Source: patent US20090253630A1 (Eli Lilly, published 2009)
